“And” between values parts separate entries of the source, which are not always exact repeats. Equal values may be shown once.

The record followed here is paper PMC10269810, “RNA Encapsulation Mode and Evolutionary Insights from the Crystal Structure of Emaravirus Nucleoprotein”.

Data set [1] concerns the target fig mosaic virus nucleoprotein, full length (N^fl) (fig mosaic virus). In words: SEC-MALS; RNA-free purified N^fl; conditions not given. For orientation: In gel filtration, larger molecules generally elute earlier.
Data set [2] concerns the target trypsin-treated fig mosaic virus nucleoprotein lacking the first 45 N-terminal residues (N^ΔN45) (fig mosaic virus). The experiment in a line: crystal structure; N^ΔN45 co-crystallized with 42-mer poly(U) ssRNA, 20% PEG 3350, 0.2 M magnesium formate pH 5.9, space group P2_(1)2_(1)2_(1).
Data set [3] shares this target. The experiment in a line: crystal structure; RNA-free N^ΔN45, hanging drop at 16°C, sodium formate pH 7.0, space group P2_(1), four molecules in the asymmetric unit.
Data set [4] deals with FMV N full length (Nfl) (Fig mosaic virus (Fimoviridae, …, UniProt I2FFM8 1-315)). In words: fluorescence polarization; RNA 1 uM; ITC: 20 mM Tris pH 7.4, 150 mM NaCl, 5% glycerol, 5 mM beta-ME, 25 C; FP: 1 uM RNA, 37 C 20 min incubation, buffer not stated (protein stock 20 mM Tris pH 7.5). The note with it: protein: recombinant; tags: N-terminal 6xHis removed by TEV; chain copies: 4; label: 5' 6-carboxyfluorescein (FAM); single strand.

With “fig mosaic virus nucleoprotein, full length (N^fl) (natural protein)”, the stoichiometry N in data set [1] is 4 and 3 and 5. Consider “trypsin-treated fig mosaic virus nucleoprotein lacking the first 45 N-terminal residues (N^ΔN45) (domain or fragment)”, for which the stoichiometry N in data set [2] and in data set [3] was 4 throughout.

B1: poly(rU) 42-mer, FAM (ssRNA)
RNA: UUUUUUUUUUUUUUUUUUUUUUUUUUUUUUUUUUUUUUUUUU
Take B1: in data set [4], the Kd is approximately 5 µM.

Usually stoichiometry N stands for a count of units in the complex or per binding partner. For orientation: Kd means the free concentration of one partner at which half of the binding sites on the other are occupied at equilibrium, for simple one-to-one binding.
